Patent US20010010923A1, “MODIFIED CARBOXYPEPTIDASE” (priority 1997, published 2001)
Marks after values point to notes of the source that are not given here.

How the values were obtained:
Assay type in all cases: biochemical
[1] = Transpeptidation of Bz-G-A-R-A-R-X-OH at pH 7.5 at 50% substrate consumption, Table 4; design: key to fa: fraction: aminolysis product / sum of all products formed; details: for fa / t: 50% substrate consumption; for t: 375 mM H-Leu-NH2, 2 mM substrate, [E] 0.1 mg/mL
Description: (§1) Transamidation reactions were carried out generally as described in PCT Application WO 95/20039. In general, the method included dissolving the nucleophile (H-Leu-NH2, unless otherwise indicated) in 50 mM HEPES, 5 mM EDTA and adjusting the pH to 7.5, 5 μl of peptide substrate (8 mM Bz-G-A-R-A-R-A-OH, unless otherwise indicated, in methanol) was added to 190 μl nucleophile solution followed by 5 μl enzyme, resulting in a substrate concentration of 0.2 mM.
(§2) During the reaction, 20 μl aliquots were removed from the reaction mixture and added to 50 μl 1% trifluoroacetic acid to quench the reaction. The reactant composition was determined by HPLC using a Waters HPLC equipped with a C-18 Waters Novapac 4μ reverse phase column and various gradients of acetonitrile in 0.1% trifluoroacetic acid. The separation was monitored at 254 nm allowing the direct quantification of the products from the integrated peak areas. The composition of the reaction mixture was determined at least twvice during the reaction, the first when 20-50% (preferably 35%) of the substrate had been consumed in the reaction and the second time when 50-90% (preferably 80%) of the peptide substrate had been consumed.
The fraction of aminolysis (fa) was expressed as the ratio between the formed aminolysis product and the sum of all products formed. Unconsumed substrate was disregarded in the calculations.
Site specific mutagenesis was performed as described for Example 1 to generate the specific mutants described below. Transamidation reactions were performed as described for Examples 1.

[2] = Transpeptidation of Bz-G-A-R-A-R-X-OH at pH 6.5 at 50% substrate consumption, Table 5; design: key to fa: fa = aminolysis product / sum of all products formed; details: for Pmax (peak product yield) / fa: 750 mM H-Leu-NH2; for fa / t: 50% substrate consumption; for t: 750 mM H-Leu-NH2, 2 mM substrate, [E] 0.1 mg/mL
Description: as §1, with “[…],” for “5 mM EDTA and adjusting the pH to 7.5,”
as §2
The fraction of aminolysis (fa) was expressed as the ratio between the formed aminolysis product and the sum of all products formed. Unconsumed substrate was disregarded in the calculations. […]

[3] = Transpeptidation of FA-Ala-Xaa-OH with H-Gly-NH2, Table 2; details: 1.9 M H-Gly-NH2, pH 7.5, room temperature; for Fraction of aminolysis (fa), P1' Ala: FA-Ala-Ala-OH 0.2 mM; for Fraction of aminolysis (fa), P1' Leu: FA-Ala-Leu-OH 0.2 mM; for Fraction of aminolysis (fa), P1' Met: FA-Ala-Met-OH 0.2 mM; for Fraction of aminolysis (fa), P1' Phe: FA-Ala-Phe-OH 0.2 mM; for Fraction of aminolysis (fa), P1' Val: FA-Ala-Val-OH 0.2 mM
How it was run: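 Enzyme reacted with 0.2 mM peptide substrate and nucleophile in 50 mM HEPES, 5 mM EDTA, pH 7.5; aliquots quenched in 1% TFA. Products quantified by reverse-phase HPLC at 254 nm at two conversion points (20-50% and 50-90% substrate consumed). Fraction of aminolysis = aminolysis product over all products, ignoring unconsumed substrate.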

[4] = Transpeptidation of FA-Ala-OBzl with H-Leu-NH2, Table 3; details: FA-Ala-OBzl 0.2 mM, pH 7.5; for fa: H-Leu-NH2; for KN(app): nucleophile H-Leu-NH2 concentration at which fa is half of maximum
How it was run: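 Site-directed mutant enzymes were reacted with H-Leu-NH2 in 50 mM HEPES, 5 mM EDTA, pH 7.5, with acyl-donor substrate at 0.2 mM final. Products were quantified by C-18 RP-HPLC at 254 nm at about 35% and 80% substrate consumption. fa is aminolysis product over all products; famax is fa at nucleophile saturation, and KN(app) is the nucleophile concentration giving famax/2.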

[5] = leaving group A, 375 mM H-Leu-NH2
[6] = leaving group I, 375 mM H-Leu-NH2
[7] = leaving group L, 375 mM H-Leu-NH2
[8] = leaving group M, 375 mM H-Leu-NH2
[9] = leaving group V, 375 mM H-Leu-NH2

Molecule	Pmax (peak product yield) [1, 5]	fa [1, 5]	t ([1]; leaving group A) [min]	fa [1, 6]	t ([1]; leaving group I) [min]	Pmax (peak product yield) [1, 7]	fa [1, 7]	t ([1]; leaving group L) [min]	fa [1, 8]	t ([1]; leaving group M) [min]	fa [1, 9]	t ([1]; leaving group V) [min]	Pmax (peak product yield) ([2]; leaving group A)	fa ([2]; leaving group A)	t ([2]; leaving group A) [min]	Pmax (peak product yield) ([2]; leaving group L)	fa ([2]; leaving group L)	t ([2]; leaving group L) [min]	Fraction of aminolysis (fa), P1' Ala [3]	Fraction of aminolysis (fa), P1' Leu [3]	other results
N51Q + L178S + M398L: carboxypeptidase Y mutant N51Q + L178S + M398L (protein, UniProt P00729 112-532, looked up, variant N51Q L178S M398L) Carboxypeptidase Y: KIKDPKILGIDPNVTQYTGYLDVEDEDKHFFFWTFESRNDPAKDPVILWLQGGPGCSSLTGLFFELGPSSIGPDLKPIGNPYSWNSNATVIFLDQPVNVGFSYSGSSGVSNTVAAGKDVYNFLELFFDQFPEYVNKGQDFHIAGESYAGHYIPVFASEILSHKDRNFNLTSVLIGNGSTDPLTQYNYYEPMACGEGGEPSVLPSEECSAMEDSLERCLGLIESCYDSQSVWSCVPATIYCNNAQLAPYQRTGRNVYDIRKDCEGGNLCYPTLQDIDDYLNQDYVKEAVGAEVDHYESCNFDINRNFLFAGDWMKPYHTAVTDLLNQDLPILVYAGDKDFICNWLGNKAWTDVLPWKYDEEFASQKVRNWTASITDEVAGEVKSYKHFTYLRVFNGGHLVPFDVPENALSMVNEWIHGGFSL	>0.67	0.87	24	0.82	129	>0.73	0.76	52	0.75	84	0.82	168	0.70	0.91	194	0.80	0.84	36	–	–	fraction of aminolysis for leucine as a leaving group, in words [1]: improved; Pmax (peak product yield) ([1]; leaving group L, 375 mM H-Leu-NH2, listed as N51Q+L178S+M398L): 0.73
T60E: carboxypeptidase Y S1' mutant, substitution T60E (protein, UniProt P00729 112-532, looked up, variant T60E) Carboxypeptidase Y: KIKDPKILGIDPNVTQYTGYLDVEDEDKHFFFWTFESRNDPAKDPVILWLNGGPGCSSLEGLFFELGPSSIGPDLKPIGNPYSWNSNATVIFLDQPVNVGFSYSGSSGVSNTVAAGKDVYNFLELFFDQFPEYVNKGQDFHIAGESYAGHYIPVFASEILSHKDRNFNLTSVLIGNGLTDPLTQYNYYEPMACGEGGEPSVLPSEECSAMEDSLERCLGLIESCYDSQSVWSCVPATIYCNNAQLAPYQRTGRNVYDIRKDCEGGNLCYPTLQDIDDYLNQDYVKEAVGAEVDHYESCNFDINRNFLFAGDWMKPYHTAVTDLLNQDLPILVYAGDKDFICNWLGNKAWTDVLPWKYDEEFASQKVRNWTASITDEVAGEVKSYKHFTYLRVFNGGHMVPFDVPENALSMVNEWIHGGFSL	–	–	–	–	–	–	–	–	–	–	–	–	–	–	–	–	–	–	0.82	0.05	Fraction of aminolysis (fa), P1' Met [3]: 0.07; Fraction of aminolysis (fa), P1' Phe [3]: 0.02; Fraction of aminolysis (fa), P1' Val [3]: 0.33; fa [4]: 0.94^a; KN(app) [4]: 2.0^b mM
N51Q + L178S: carboxypeptidase Y mutant N51Q + L178S (S1' and S1 subsites) (protein, UniProt P00729 112-532, looked up, variant N51Q L178S) Carboxypeptidase Y: KIKDPKILGIDPNVTQYTGYLDVEDEDKHFFFWTFESRNDPAKDPVILWLQGGPGCSSLTGLFFELGPSSIGPDLKPIGNPYSWNSNATVIFLDQPVNVGFSYSGSSGVSNTVAAGKDVYNFLELFFDQFPEYVNKGQDFHIAGESYAGHYIPVFASEILSHKDRNFNLTSVLIGNGSTDPLTQYNYYEPMACGEGGEPSVLPSEECSAMEDSLERCLGLIESCYDSQSVWSCVPATIYCNNAQLAPYQRTGRNVYDIRKDCEGGNLCYPTLQDIDDYLNQDYVKEAVGAEVDHYESCNFDINRNFLFAGDWMKPYHTAVTDLLNQDLPILVYAGDKDFICNWLGNKAWTDVLPWKYDEEFASQKVRNWTASITDEVAGEVKSYKHFTYLRVFNGGHMVPFDVPENALSMVNEWIHGGFSL	0.60	0.72	34	0.62	211	0.18	0.20	23	0.51	211	0.62	194	0.78	0.87	31	0.26	0.28	19	–	–	–
M398R: carboxypeptidase Y S1' mutant, substitution M398R (protein, UniProt P00729 112-532, looked up, variant M398R) Carboxypeptidase Y: KIKDPKILGIDPNVTQYTGYLDVEDEDKHFFFWTFESRNDPAKDPVILWLNGGPGCSSLTGLFFELGPSSIGPDLKPIGNPYSWNSNATVIFLDQPVNVGFSYSGSSGVSNTVAAGKDVYNFLELFFDQFPEYVNKGQDFHIAGESYAGHYIPVFASEILSHKDRNFNLTSVLIGNGLTDPLTQYNYYEPMACGEGGEPSVLPSEECSAMEDSLERCLGLIESCYDSQSVWSCVPATIYCNNAQLAPYQRTGRNVYDIRKDCEGGNLCYPTLQDIDDYLNQDYVKEAVGAEVDHYESCNFDINRNFLFAGDWMKPYHTAVTDLLNQDLPILVYAGDKDFICNWLGNKAWTDVLPWKYDEEFASQKVRNWTASITDEVAGEVKSYKHFTYLRVFNGGHRVPFDVPENALSMVNEWIHGGFSL	–	–	–	–	–	–	–	–	–	–	–	–	–	–	–	–	–	–	0.48	0.16	Fraction of aminolysis (fa), P1' Met [3]: 0.33; Fraction of aminolysis (fa), P1' Phe [3]: 0.11; Fraction of aminolysis (fa), P1' Val [3]: 0.26; fa [4]: 0.39^b; KN(app) [4]: 9.9^c mM
